Results: paper PMC8213806

Assays:
[1] = molecular target: TcdB2 (R20292 strain), recombinant full-length, from Bacillus megaterium (Clostridioides difficile (R20292 strain as printed))
[2] = molecular target: Repeat1-Fc (CSPG4 Repeat1, residues 410–551, fused to the N-terminus of human IgG1 Fc) (human) (UniProt Q6UVK1); assay: BLI; Repeat1-Fc (50 nM) immobilised on Anti-hIgG-Fc biosensors, TcdB1 or TcdB2 in solution; 20 mM HEPES, 400 mM NaCl, pH 7.5, 10 mM CaCl2, 0.1% Tween-20, 0.5% BSA; 1:1 binding model
Chain of Repeat1-Fc (CSPG4 Repeat1, residues 410–551, fused to the N-terminus of human IgG1 Fc) (human) (Q6UVK1 410-551): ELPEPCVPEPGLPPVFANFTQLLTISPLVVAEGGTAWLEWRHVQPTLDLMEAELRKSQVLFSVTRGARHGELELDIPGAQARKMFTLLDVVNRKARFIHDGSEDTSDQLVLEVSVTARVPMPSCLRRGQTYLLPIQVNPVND

Chain of Repeat1-Fc (CSPG4 Repeat1, residues 410–551, fused to the N-terminus of human IgG1 Fc) (Q6UVK1 410-551): as above

| Substance | neutralisation in the cell-rounding assay on HeLa cells, 24 h, Repeat1-Fc at 2 µM; cells kept from rounding [1] | Kd [2] | koff [2] | kon [2] |
| --- | --- | --- | --- | --- |
| Repeat1-Fc (CSPG4 Repeat1, residues 410–551, fused to the N-terminus of human IgG1 Fc) (from UniProt Q6UVK1 410-551) (Fc fusion) | 40% | – | – | – |
| TcdB2 (R20292 strain), recombinant full-length, from Bacillus megaterium (natural protein) | – | 5.4 nM | 4.63e-05 s⁻¹ | 8340 M⁻¹ s⁻¹ |
